Columns and labels:
[1] = test system: GFP-14-3-3β; assay: GFP-14-3-3β co-IP with LC-MS/MS, untreated GFP-14-3-3β versus GFP control (14-3-3 interactome); assay type: binding, human; conditions: 3 replicates each
[2] = test system: GFP-14-3-3β and its binding proteins; assay: GFP-14-3-3β co-IP with LC-MS/MS label-free quantification, untreated versus PP1c-treated; set-up: species or system human; conditions: pairwise comparison PP1 vs untreated, 3 replicates each
[3] = pairwise comparison untreated GFP-14-3-3β vs GFP, student's t-test, LC-MS/MS label-free quantification
[4] = student's t-test, LC-MS/MS label-free quantification

Molecule	Difference (log2), untreated vs GFP ([1]; log2 difference, pairwise comparison untreated vs GFP, label-free quantification)	Difference (log2), PP1 vs untreated ([2]; log2 difference, label-free quantification)	Difference (log2), untreated vs GFP [1, 3] [log2]	Difference (log2), PP1 vs untreated [2, 4] [log2]
RNPC3 (protein, UniProt Q96LT9 1-517, looked up) RNA-binding region-containing …: MAAPEQPLAISRGCTSSSSLSPPRGDRTLLVRHLPAELTAEEKEDLLKYFGAQSVRVLSDKGRLKHTAFATFPNEKAAIKALTRLHQLKLLGHTLVVEFAKEQDRVHSPCPTSGSEKKKRSDDPVEDDKEKKELGYLTVENGIAPNHGLTFPLNSCLKYMYPPPSSTILANIVNALASVPKFYVQVLHLMNKMNLPTPFGPITARPPMYEDYMPLHAPLPPTSPQPPEEPPLPDEDEELSSEESEYESTDDEDRQRMNKLMELANLQPKRPKTIKQRHVRKKRKIKDMLNTPLCPSHSSLHPVLLPSDVFDQPQPVGNKRIEFHISTDMPAAFKKDLEKEQNCEEKNHDLPATEVDASNIGFGKIFPKPNLDITEEIKEDSDEMPSECISRRELEKGRISREEMETLSVFRSYEPGEPNCRIYVKNLAKHVQEKDLKYIFGRYVDFSSETQRIMFDIRLMKEGRMKGQAFIGLPNEKAAAKALKEANGYVLFGKPMVVQFARSARPKQDPKEGKRKC	-2.187	5.4303	–	–
FGD6 (protein, UniProt Q6ZV73 1-1430, looked up) FYVE, RhoGEF and PH …: MTSAAEIKKPPVAPKPKFVVANNKPAPPPIAPKPDIVISSVPQSTKKMKPAIAPKPKVLKTSPVREIGQSPSRKIMLNLEGHKQELAESTDNFNCKYEGNQSNDYISPMCSCSSECIHKLGHRENLCVKQLVLEPLEMNENLENSKIDETLTIKTRSKCDLYGEKAKNQGGVVLKASVLEEELKDALIHQMPPFISAQKHRPTDSPEMNGGCNSNGQFRIEFADLSPSPSSFEKVPDHHSCHLQLPSDECEHFETCQDDSEKSNNCFQSSELEALENGKRSTLISSDGVSKKSEVKDLGPLEIHLVPYTPKFPTPKPRKTRTARLLRQKCVDTPSESTEEPGNSDSSSSCLTENSLKINKISVLHQNVLCKQEQVDKMKLGNKSELNMESNSDAQDLVNSQKAMCNETTSFEKMAPSFDKDSNLSSDSTTVDGSSMSLAVDEGTGFIRCTVSMSLPKQLKLTCNEHLQSGRNLGVSAPQMQKESVIKEENSLRIVPKKPQRHSLPATGVLKKAASEELLEKSSYPSSEEKSSEKSLERNHLQHLCAQNRGVSSSFDMPKRASEKPVWKLPHPILPFSGNPEFLKSVTVSSNSEPSTALTKPRAKSLSAMDVEKCTKPCKDSTKKNSFKKLLSMKLSICFMKSDFQKFWSKSSQLGDTTTGHLSSGEQKGIESDWQGLLVGEEKRSKPIKAYSTENYSLESQKKRKKSRGQTSAANGLRAESLDDQMLSRESSSQAPYKSVTSLCAPEYENIRHYEEIPEYENLPFIMAIRKTQELEWQNSSSMEDADANVYEVEEPYEAPDGQLQLGPRHQHSSSGASQEEQNDLGLGDLPSDEEEIINSSDEDDVSSESSKGEPDPLEDKQDEDNGMKSKVHHIAKEIMSSEKVFVDVLKLLHIDFRDAVAHASRQLGKPVIEDRILNQILYYLPQLYELNRDLLKELEERMLHWTEQQRIADIFVKKGPYLKMYSTYIKEFDKNIALLDEQCKKNPGFAAVVREFEMSPRCANLALKHYLLKPVQRIPQYRLLLTDYLKNLIEDAGDYRDTQDALAVVIEVANHANDTMKQGDNFQKLMQIQYSLNGHHEIVQPGRVFLKEGILMKLSRKVMQPRMFFLFNDALLYTTPVQSGMYKLNNMLSLAGMKVRKPTQEAYQNELKIESVERSFILSASSATERDEWLEAISRAIEEYAKKRITFCPSRSLDEADSENKEEVSPLGSKAPIWIPDTRATMCMICTSEFTLTWRRHHCRACGKIVCQACSSNKYGLDYLKNQPARVCEHCFQELQKLDHQHSPRIGSPGNHKSPSSALSSVLHSIPSGRKQKKIPAALKEVSANTEDSSMSGYLYRSKGNKKPWKHFWFVIKNKVLYTYAASEDVAALESQPLLGFTVIQVKDENSESKVFQLLHKNMLFYVFKAEDAHSAQKWIEAFQEGTIL	–	–	2.545	-2.212
FOXK1 (protein, UniProt P85037 2-733, looked up) Forkhead box protein K1: AEVGEDSGARALLALRSAPCSPVLCAAAAAAAFPAAAPPPAPAQPQPPPGPPPPPPPPLPPGAIAGAGSSGGSSGVSGDSAVAGAAPALVAAAAASVRQSPGPALARLEGREFEFLMRQPSVTIGRNSSQGSVDLSMGLSSFISRRHLQLSFQEPHFYLRCLGKNGVFVDGAFQRRGAPALQLPKQCTFRFPSTAIKIQFTSLYHKEEAPASPLRPLYPQISPLKIHIPEPDLRSMVSPVPSPTGTISVPNSCPASPRGAGSSSYRFVQNVTSDLQLAAEFAAKAASEQQADTSGGDSPKDESKPPFSYAQLIVQAISSAQDRQLTLSGIYAHITKHYPYYRTADKGWQNSIRHNLSLNRYFIKVPRSQEEPGKGSFWRIDPASEAKLVEQAFRKRRQRGVSCFRTPFGPLSSRSAPASPTHPGLMSPRSGGLQTPECLSREGSPIPHDPEFGSKLASVPEYRYSQSAPGSPVSAQPVIMAVPPRPSSLVAKPVAYMPASIVTSQQPAGHAIHVVQQAPTVTMVRVVTTSANSANGYILTSQGAAGGSHDAAGAAVLDLGSEARGLEEKPTIAFATIPAAGGVIQTVASQMAPGVPGHTVTILQPATPVTLGQHHLPVRAVTQNGKHAVPTNSLAGNAYALTSPLQLLATQASSSAPVVVTRVCEVGPKEPAAAVAATATTTPATATTASASASSTGEPEVKRSRVEEPSGAVTTPAGVIAAAGPQGPGTGE	–	–	5.634	-2.312
AMER1 (protein, UniProt Q5JTC6 1-1135, looked up) APC membrane recruitment …: METQKDEAAQAKGAAASGSTREQTAEKGAKNKAAEATEGPTSEPSSSGPGRLKKTAMKLFGGKKGICTLPSFFGGGRSKGSGKGSSKKGLSKSKTHDGLSEAAHGPEDVVSEGTGFSLPLPELPCQFPSSQSAHGALETGSRCKTSVAGATEKAVAEKFPSMPKPKKGLKGFFSSIRRHRKSKVTGAEQSEPGAKGPERVRARPHEHVSSAPQVPCFEETFQAPRKENANPQDAPGPKVSPTPEPSPPATEKMACKDPEKPMEACASAHVQPKPAPEASSLEEPHSPETGEKVVAGEVNPPNGPVGDPLSLLFGDVTSLKSFDSLTGCGDIIAEQDMDSMTDSMASGGQRANRDGTKRSSCLVTYQGGGEEMALPDDDDEEEEEEEEVELEEEEEEVKEEEEDDDLEYLWETAQMYPRPNMNLGYHPTTSPGHHGYMLLDPVRSYPGLAPGELLTPQSDQQESAPNSDEGYYDSTTPGFEDDSGEALGLVRRDCLPRDSYSGDALYEFYEPDDSLENSPPGDDCLYDLHGRSSEMFDPFLNFEPFLSSRPPGAMETEEERLVTIQKQLLYWELRREQLEAQEARAREAHAREAHAREAYTREAYGREAYAREAHTWEAHGREARTREAQAREVRCRETQVRETQARQEKPVLEYQMRPLGPSVMGLAAGVSGTSQISHRGITSAFPTTASSEPDWRDFRPLEKRYEGTCSKKDQSTCLMQLFQSDAMFEPDMQEANFGGSPRRAYPTYSPPEDPEEEEVEKEGNATVSFSQALVEFTSNGNLFSSMSCSSDSDSSFTQNLPELPPMVTFDIADVERDGEGKCEENPEFHNDEDLAASLEAFELGYYHKHAFNNYHSRFYQGLPWGVSSLPRYLGLPGLHPRPPPAAMALNRRSRSLDTAETLEMELSNSHLVQGYLESDELQAQQEDSDEEDEEEEEGEWSRDSPLSLYTEPPGAYDWPAWAPCPLPVGPGPAWISPNQLDRPSSQSPYRQATCCIPPMTMSISLSVPESRAPGESGPQLARPSHLHLPMGPCYNLQPQASQSMRARPRDVLLPVDEPSCSSSSGGFSPSPLPQAKPVGITHGIPQLPRVRPEHPQPQPTHYGPSSLDLSKERAEQGASLATSYSSTAMNGNLAK	–	–	1.494	-2.386
PARD3 (protein, UniProt Q8TEW0 1-1356, looked up) Partitioning defective 3 …: MKVTVCFGRTRVVVPCGDGHMKVFSLIQQAVTRYRKAIAKDPNYWIQVHRLEHGDGGILDLDDILCDVADDKDRLVAVFDEQDPHHGGDGTSASSTGTQSPEIFGSELGTNNVSAFQPYQATSEIEVTPSVLRANMPLHVRRSSDPALIGLSTSVSDSNFSSEEPSRKNPTRWSTTAGFLKQNTAGSPKTCDRKKDENYRSLPRDTSNWSNQFQRDNARSSLSASHPMVGKWLEKQEQDEDGTEEDNSRVEPVGHADTGLEHIPNFSLDDMVKLVEVPNDGGPLGIHVVPFSARGGRTLGLLVKRLEKGGKAEHENLFRENDCIVRINDGDLRNRRFEQAQHMFRQAMRTPIIWFHVVPAANKEQYEQLSQSEKNNYYSSRFSPDSQYIDNRSVNSAGLHTVQRAPRLNHPPEQIDSHSRLPHSAHPSGKPPSAPASAPQNVFSTTVSSGYNTKKIGKRLNIQLKKGTEGLGFSITSRDVTIGGSAPIYVKNILPRGAAIQDGRLKAGDRLIEVNGVDLVGKSQEEVVSLLRSTKMEGTVSLLVFRQEDAFHPRELNAEPSQMQIPKETKAEDEDIVLTPDGTREFLTFEVPLNDSGSAGLGVSVKGNRSKENHADLGIFVKSIINGGAASKDGRLRVNDQLIAVNGESLLGKTNQDAMETLRRSMSTEGNKRGMIQLIVARRISKCNELKSPGSPPGPELPIETALDDRERRISHSLYSGIEGLDESPSRNAALSRIMGESGKYQLSPTVNMPQDDTVIIEDDRLPVLPPHLSDQSSSSSHDDVGFVTADAGTWAKAAISDSADCSLSPDVDPVLAFQREGFGRQSMSEKRTKQFSDASQLDFVKTRKSKSMDLGIADETKLNTVDDQKAGSPSRDVGPSLGLKKSSSLESLQTAVAEVTLNGDIPFHRPRPRIIRGRGCNESFRAAIDKSYDKPAVDDDDEGMETLEEDTEESSRSGRESVSTASDQPSHSLERQMNGNQEKGDKTDRKKDKTGKEKKKDRDKEKDKMKAKKGMLKGLGDMFRFGKHRKDDKIEKTGKIKIQESFTSEEERIRMKQEQERIQAKTREFRERQARERDYAEIQDFHRTFGCDDELMYGGVSSYEGSMALNARPQSPREGHMMDALYAQVKKPRNSKPSPVDSNRSTPSNHDRIQRLRQEFQQAKQDEDVEDRRRTYSFEQPWPNARPATQSGRHSVSVEVQMQRQRQEERESSQQAQRQYSSLPRQSRKNASSVSQDSWEQNYSPGEGFQSAKENPRYSSYQGSRNGYLGGHGFNARVMLETQELLRQEQRRKEQQMKKQPPSEGPSNYDSYKKVQDPSYAPPKGPFRQDVPPSPSQVARLNRLQTPEKGRPFYS	–	–	5.534	-2.404

From PMC7367873, “Dissecting the sequence determinants for dephosphorylation by the catalytic subunits of phosphatases PP1 and PP2A” (Nature Communications, 2020)
